In assay [1] the test system is microtubule cytoskeleton of fission yeast cells expressing Myc-Bot1. Put plainly: Microtubule depolymerization and Bot1p localization by immunofluorescence in cells expressing Myc-Bot1. It is filed as cell-based, Schizosaccharomyces pombe. The conditions noted are these: cells expressing Myc-Bot1 exposed for 45 min. How it is done: Cells in liquid cultures were grown exponentially for at least eight generations, at densities below 10^7 cells/ml, before the start of the experiment. Immunofluorescent staining was performed as described (46). Cells were fixed in methanol and stained with the following primary antibodies: a rabbit polyclonal antibody anti-Tea1p (40, a kind gift of Dr. P. Nurse, ICRF London), a rabbit polyclonal antibody anti-Orb6p, a monoclonal anti-hemagglutinin (HA) antibody (Covance), and a chicken polyclonal anti-Myc antibody (Molecular Probes). For actin and microtubule staining, a monoclonal anti-actin antibody (Amersham Pharmacia Biotech) and a monoclonal anti-tubulin antibody (TAT1; a kind gift of Dr. K. Gull), respectively, were used A CY3-conjugated anti-mouse, a CY3-conjugated anti-rabbit, or an FITC-conjugated anti-mouse were used as secondary antibodies (Sigma). Cells were immobilized on coverslips using PBS-containing antifade (Molecular Probes) as mounting medium and photographed using a Zeiss Axiophot microscope or a Leica DMRA microscope, equipped with Metamorph 1.7.4 software (Universal Images).
Because our previous results indicated a role for Tea1p in the control of Bot1p function, the effect of microtubule depolymerization on Bot1p localization was assessed. […]

Assay [2] concerns the target T1, GAL4 binding domain fused to Cdt1p (pAS1-cdt1) (fission yeast, UniProt P04386 1-147; P40382 1-422, limits assumed).
T1 construct: Two-hybrid control bait
The assay can be described thus: two-hybrid library screens with other baits; dot blotting of the isolated pACT plasmids.

Assay [3] deals with GAL4 binding domain fused to SNF1p (pSE1112, pAS1-SNF1) (UniProt P04386 1-147; P06782 1-633). The assay can be described thus: yeast two-hybrid (HIS3 and LACZ reporters). An excerpt: (§1) The tea1 gene was fused to the DNA binding domain of GAL4 in a plasmid (pAS1) carrying the trp1 marker. The orb6 gene was fused to the DNA binding domain of GAL4 (pAS1-orb6) and to the GAL4 activator domain (pACT2-orb6). The cDNA library was cloned to the transcription activator domain of GAL4 in a plasmid (pACT) carrying the leu2 marker. Plasmids pAS1, pACT2, pSE1111 (pACT-SNF4), pSE1112 (pAS1-SNF1), pAS1-p53, pAS1-lamin and the S. pombe library prepared in phage λ vectors and plasmids pAS1-SNF1 and pAS1-lamin, both harbored in Y187 strain, were kindly provided by Dr. S. Elledge. The test for cell growth on medium lacking histidine, the beta-galactosidase activation assay and the mating test to detect interaction specificity were performed as described (14). After screening 2×10⁶ transformants, we found five proteins that interact with Orb6p and four that interact with Tea1p in this system, and that were identified multiple times in the screen. Clones containing bot1+ were isolated 22 times in the Orb6p screen and eight times in the Tea1p screen. All clones contained the full-length bot1 sequence, although they usually lacked the initial ATG codon. For beta-galactosidase activation, three independent transformants were assayed for each condition.
(§2) To identify novel components of the Orb6p pathway, a two-hybrid screen was performed to identify cDNAs encoding proteins that interact with Orb6p. One of these, isolated 22 times in this screen, was a novel protein that we named Bot1p. […] The specificity of the positive interaction between Orb6p and Bot1p in the two-hybrid system was controlled by cotransformation of pAS1-orb6 and pACT-bot1 independently with a number of control plasmids. Co-expression of SNF1p or SNF4p was used as positive controls. Orb6p was unable to support the activation of the LACZ-GAL4 and HIS3-GAL4 promoters when co-expressed with GAL4 activation domain fused to SNF4p, or with the GAL4 activation domain (GAD) alone. Bot1p was unable to support the activation of the LACZ-GAL4 and HIS3-GAL4 promoters when co-expressed with the GAL4 binding domain fused to p53, Cdc23p, GAL4 DNA binding domain (GBD) alone, or fused to SNF1p or Cdt1p.

The target in assay [4] is T2, GAL4 binding domain fused to Cdc23p (pAS1-cdc23) (fission yeast, UniProt P04386 1-147; O42709 1-593).
T2 construct: Two-hybrid control bait
The assay can be described thus: yeast two-hybrid (HIS3 and LACZ reporters).
From the text: as §1, §2

For assay [5], the target named is T3, GST-tagged Tea1p (pESP-GSTtea1+) (Schizosaccharomyces pombe, UniProt P87061 1-1147).
T3 construct: also called GST-Tea1p
T3 sequence (looked up): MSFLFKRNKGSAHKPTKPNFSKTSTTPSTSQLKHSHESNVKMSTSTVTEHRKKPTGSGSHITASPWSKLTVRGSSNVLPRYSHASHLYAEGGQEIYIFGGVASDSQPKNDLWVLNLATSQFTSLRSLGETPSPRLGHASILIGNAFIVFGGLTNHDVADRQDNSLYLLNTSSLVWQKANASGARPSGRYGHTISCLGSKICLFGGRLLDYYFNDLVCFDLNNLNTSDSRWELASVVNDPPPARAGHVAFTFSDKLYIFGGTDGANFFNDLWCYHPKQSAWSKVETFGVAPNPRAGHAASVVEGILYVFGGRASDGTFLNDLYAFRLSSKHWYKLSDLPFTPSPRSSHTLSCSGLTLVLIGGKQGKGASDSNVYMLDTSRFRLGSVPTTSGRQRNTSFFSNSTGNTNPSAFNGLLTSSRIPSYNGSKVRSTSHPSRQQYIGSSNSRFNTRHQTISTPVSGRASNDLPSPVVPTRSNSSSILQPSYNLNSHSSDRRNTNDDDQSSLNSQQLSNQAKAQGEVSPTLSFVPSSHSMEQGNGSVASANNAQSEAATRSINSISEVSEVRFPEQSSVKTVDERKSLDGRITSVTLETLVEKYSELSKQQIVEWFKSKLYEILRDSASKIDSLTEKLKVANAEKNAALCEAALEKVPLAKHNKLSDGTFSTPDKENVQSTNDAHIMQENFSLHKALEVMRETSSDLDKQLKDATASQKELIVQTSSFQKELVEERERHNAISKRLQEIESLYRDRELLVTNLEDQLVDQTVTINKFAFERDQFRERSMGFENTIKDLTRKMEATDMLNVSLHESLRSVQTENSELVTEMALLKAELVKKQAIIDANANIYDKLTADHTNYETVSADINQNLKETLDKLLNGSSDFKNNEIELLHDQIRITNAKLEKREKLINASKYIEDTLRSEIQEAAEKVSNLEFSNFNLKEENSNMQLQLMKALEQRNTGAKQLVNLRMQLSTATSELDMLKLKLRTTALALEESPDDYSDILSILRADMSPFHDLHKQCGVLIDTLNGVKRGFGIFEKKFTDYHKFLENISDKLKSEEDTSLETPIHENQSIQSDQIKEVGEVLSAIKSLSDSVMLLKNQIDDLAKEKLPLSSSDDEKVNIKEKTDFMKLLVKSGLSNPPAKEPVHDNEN
Put plainly: glutathione beads carrying GST-Tea1p incubated with a fission yeast extract containing HA-Cdc23p. The protocol:
Cell extracts were prepared as described. GST-Tea1p and GST were purified using glutathione beads (Molecular Probes). Beads were spun, and further incubated for 4 hr with an extract containing HA-Bot1p or a control extract containing HA-Cdc23p.
Glutathione beads were washed three times in HB buffer and then eluted. The eluate was run on a 10% polyacrylamide gel, blotted on nitrocellulose, and probed with a primary anti-HA antibody (Covance) or, separately, with a primary anti-GST antibody (Molecular Probes) and with a horseradish peroxidase-conjugated secondary antibody (ECL, Amersham).
To confirm this interaction between Tea1p and Bot1p in fission yeast extracts, GST-Tea1p and HA-Bot1p were co-expressed in fission yeast cells, and GST-Tea1p was purified using glutathione-coupled resin. The beads were further incubated with an extract containing HA-Bot1p or HA-Cdc23p as a control.

Three molecules from patent US20040106173A1, “Bot1: target for antifungal agents” (The University of Miami, priority 2001, published 2004) can be followed below.

In the case of `COC(=O)Nc1nc2ccccc2[nH]1` [MBC, methyl-benzidazole-carbamate], the “effect on microtubule cytoskeleton” value in assay [1] (DMSO control) is on record as “virtually complete microtubule depolymerization”. The Bot1p localization entry in assay [1] (DMSO control showed normal Bot1p localization at the cell tips) is “more spread out and less restricted to the cell tips”.

B1: Bot1p fused to the GAL4 activation domain (pACT-bot1) (other, not shown: large carriers)
chain: MRNSVEFSQLGLKTAFNLSQNKTYTSAVKKQFFSTGAFLSNGGNIDLNKHTQKNIDSKYVACNSRSVTPPNDVASSVSKNTLRHKQRLMMAQWLMSPEVQKAKSSSSGNVGLGPNTNQPFPLNPFFKPPRPISHSLRMKITDEYLQGASIEVLARKFNTSPQRIEALIKLRRINDEFEEKKKPILHSYNEVMEKMLNACTKPEMMQFNDGNDIPLRSNPVSLWKSLPEGETFTPQEAAKILKWPSIEELNMRQNATHFHKTSDEHKDLNEDEELISSSPSEVGKRVFRLIDLSTGNVYRRDTGGDIYVKRKKSTT
notes: also called bot1+ clones
With B1, the binding result in assay [2], in assay [3] and in assay [4] was “no binding” throughout.

B2: HA-tagged Cdc23p (pRep41-HA3cdc23) (other, fission yeast, UniProt O42709 1-593, looked up, not shown: small tags and cut ends)
chain: MHDPFIAEENDLDLEEKRLQRQLNEIQEKKRLRSAQKEASSENAEVIQVPRSPPQQVRVLTVSSPSKLKSPKRLILGIDKGKTGKDVSLGKGPRGPLPKPFHERLAEARNQERKRSDKLKTMKKNRKQSFQRKRNILEDGKSEEEKFPMKCDEIDPYSRQAIVIRYISDEVAKENIGGNQVYLIHQLLKLVRAPKFEAPEVDNYVVMGIVASNSGTRETVNGNKYCMLTLTDLKWQLECFLFGKAFERYWKIQSGTVIALLNPEVLKPKNPDIGRFSLKLDSEYDVLLEIGRSKHLGYCSSRRKSGELCKHWLDKRAGDVCEYHVDLAVQRSMSTRTEFASSMATMHEPRARREKRFRGQGFQGYFAGEKYSAIPNAVAGLYDAEDAVQTERERKERYKKQRAQAEREREILVRLSKRCCASSSSSSNSNNLSTGMSMRTLGHQYLNLQGSGVKNLHDKGNPTALSKDSEIDSSTKKPSVLASFNASIMNPKSSLPSFSNSAILGTNDAASGTPVPQDTTSTKVSPAVVFTSSPRIFSPQSLRKIGFDPTHSADASTTHSTATGLSRSGSLKNIKFRYEFTESDDEDDLEIVP
notes: also called HA-Cdc23p; HA-Cdc23
B2: the binding result in assay [5] was “no binding”.
